Measured values from the supplement of paper PMC9732359.
± gives the uncertainty stated by the source.

Assay: protein stability index of a GFP-peptide fusion (yeast GPS) (PSI 1-4); higher = more stable; sorted into four equal gates, so the index is relative within each strain
Summary of the method: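 Tiled yeast protein peptides of 17 residues were each joined downstream of GFP, on plasmids that also express Cherry. The pooled library was maintained in yeast, and mid-log cultures in leucine-free medium were sorted into four equal gates on the GFP/Cherry ratio. Plasmids from every gate were amplified by PCR and sequenced on Illumina, with barcodes linking reads to strains. The protein stability index of a peptide is its gate-number-weighted read frequency summed over the gates.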

Sequence | protein stability index (doa10∆) | protein stability index (pdr5∆) | protein stability index (san1∆) | protein stability index (ubr1∆)
VIGGNSLFHIVVDTEET [SMC3] | 2.73 ± 0.099 | 2.78 ± 0.091 | 2.54 ± 0.076 | 2.53 ± 0.06
KVLAAHTKFEVAIGLNG [RRP40] | 2.44 ± 0.088 | 2.56 ± 0.062 | 2.34 ± 0.072 | 2.89 ± 0.057
VITIKSRIRVKIEGCIS [RPB7] | 2.04 ± 0.082 | 2.13 ± 0.056 | 1.88 ± 0.081 | 2.07 ± 0.064
VASQTVKKVIEINPFLL [PRE2] |  | 3.07 ± 0.17 | 2.44 ± 0.11 | 
IAKLSVIPIRRGYWGTN [RPS2] | 2.02 ± 0.073 | 1.67 ± 0.11 | 1.93 ± 0.19 | 1.76 ± 0.12
KYDRKVPSPTGEYVKEP [RPO21] | 2.98 ± 0.1 | 3.22 ± 0.071 | 2.81 ± 0.089 | 3.09 ± 0.04
NTFTWNHSLQHQNESSA [RPN4] | 3.08 ± 0.056 | 3.19 ± 0.055 | 3.18 ± 0.058 | 3.17 ± 0.037
GITAVHVKIRATGGTRT [RPS14B] | 1.47 ± 0.052 | 1.61 ± 0.041 | 1.57 ± 0.11 | 1.24 ± 0.047
LKFNHGNYSHLMEKNRI [REC8] | 2.06 ± 0.073 | 2.47 ± 0.056 | 2.28 ± 0.064 | 2.52 ± 0.052
LKPEIEKLTSKSLDEQL [LRP1] | 3.22 ± 0.083 | 3.26 ± 0.07 | 2.85 ± 0.077 | 2.88 ± 0.063
VQDIIGNGKLSEHFLYL [RPN1] |  |  | 3.29 ± 0.26 | 
LQVGDVVSTTAVIESVV [FAS1] | 2.33 ± 0.056 | 1.59 ± 0.056 | 2.04 ± 0.091 | 2.01 ± 0.049
SVSPQMNAILTDVKLTL [SMD1] | 2.85 ± 0.047 | 2.85 ± 0.062 | 2.83 ± 0.04 | 3 ± 0.057
LTESQTETYISDLVNQG [RPN5] | 3.18 ± 0.076 | 3.38 ± 0.071 | 3.12 ± 0.051 | 3.21 ± 0.071
YNIDANVIDTQRKNGVT [ECM29] | 2.75 ± 0.25 | 3.14 ± 0.092 | 3.26 ± 0.12 | 
FSEVYEYNRLKVQDAIE [LIN1] | 2.71 ± 0.059 | 2.17 ± 0.055 | 3.04 ± 0.076 | 2.89 ± 0.086
FQNLELETEQLSSELDS [SMC2] | 2.08 ± 0.12 | 2.58 ± 0.11 | 1.55 ± 0.14 | 2.69 ± 0.13
TNELWARLAILKERAKN [YGR119C/NUP57] | 3.26 ± 0.13 | 2.75 ± 0.2 |  | 3.58 ± 0.13
LKNKKEIYRISFQLSKI [RPS9A] | 3.03 ± 0.12 | 3.09 ± 0.084 | 3.1 ± 0.089 | 3.2 ± 0.058
KVVNGNSADAAYAQVEI [FAS2] | 2.53 ± 0.063 | 2.67 ± 0.07 | 2.14 ± 0.068 | 2.42 ± 0.057
TEQIKMRILSNDITNLQ [SRB8] | 2.33 ± 0.042 | 2.31 ± 0.037 | 2.15 ± 0.043 | 2.16 ± 0.029
IDMHLIYGVEWLIEGKL [YDL116W/NUP84] | 2.64 ± 0.17 | 2.58 ± 0.093 |  | 2.33 ± 0.099

Sequence | protein stability index (doa10∆) | protein stability index (pdr5∆) | protein stability index (san1∆) | protein stability index (ubr1∆)
SQTMAETYVASYVVPRL [ECM29] | 1.85 ± 0.042 | 1.82 ± 0.049 | 1.9 ± 0.069 | 2 ± 0.038
FDDACNQIWNIALNLAS [SSN2] | 3.01 ± 0.15 | 2.88 ± 0.078 | 2.91 ± 0.2 | 2.62 ± 0.14
KELAELKVQKLSRPSLP [RPL35A] | 2.56 ± 0.045 | 2.92 ± 0.052 | 2.5 ± 0.061 | 2.74 ± 0.048
VGACTDEEMTISQKLHD [RRP43] | 3.14 ± 0.1 | 3.04 ± 0.089 | 3.04 ± 0.084 | 3.12 ± 0.059
YPLPKFPTTSHESLVTT [MED8] | 1.81 ± 0.056 | 1.92 ± 0.06 | 2.12 ± 0.08 | 1.72 ± 0.063
KKEEKLNIGKNFAHSDS [SIR4] | 3.18 ± 0.059 | 2.97 ± 0.057 | 3.12 ± 0.033 | 3.11 ± 0.037
ELSKSRALQENGIIMNG [YMR153W/NUP53] | 2.63 ± 0.16 | 2.85 ± 0.13 | 2.64 ± 0.16 | 3.17 ± 0.15
VNAMRVLYYRDARSSRN [PRE4] |  | 3.16 ± 0.23 | 2.57 ± 0.26 | 
KPPSSAFNFSFNTSRNV [YAR002W/NUP60] | 3.2 ± 0.042 | 3.18 ± 0.056 | 3.26 ± 0.045 | 3.05 ± 0.04
TTMFENTGWSCSRIIKI [RGR1] | 3.61 ± 0.2 | 3.45 ± 0.13 | 3.37 ± 0.11 | 3.51 ± 0.1
DLIKFSAETLSELIRTT [FAS1] | 2.1 ± 0.076 | 2.29 ± 0.059 | 2.1 ± 0.081 | 2.12 ± 0.073
ERPPLLPILPIQRLRLL [YOR098C/NUP1] | 1.34 ± 0.1 | 2.36 ± 0.12 | 1.95 ± 0.18 | 1.9 ± 0.11
AQDFINAYASFLQRQGK [RPS19A] | 2.91 ± 0.061 | 3.07 ± 0.064 | 3.01 ± 0.06 | 3 ± 0.046
ANAVQNNNGNSAASKKK [SRP21] | 3.06 ± 0.11 | 3.29 ± 0.11 | 2.96 ± 0.092 | 2.93 ± 0.11
SSTDFSTCIVSLIRNNL [ECM29] | 2.7 ± 0.066 | 2.99 ± 0.092 | 2.41 ± 0.063 | 2.88 ± 0.054
IKKKKKKSKNGTISKTG [SRP14] | 3.16 ± 0.19 | 3.17 ± 0.15 | 3.11 ± 0.1 | 3.54 ± 0.11
IVLLDDEGKEIPATIFD [TAF14] | 2.82 ± 0.06 | 3.07 ± 0.048 | 3.04 ± 0.035 | 3.06 ± 0.05
NTLRMKHGTYDKLDDDG [RPB2] | 2.77 ± 0.077 | 2.83 ± 0.061 | 2.83 ± 0.063 | 2.89 ± 0.045
TEKLKISPESVFGTLGE [SMC3] | 1.99 ± 0.087 | 2.34 ± 0.066 | 2.09 ± 0.095 | 1.99 ± 0.032
LQCHISGTTNFMRNGLL [UBP6] | 1.64 ± 0.1 | 1.66 ± 0.081 | 1.81 ± 0.15 | 2.31 ± 0.17
KRKTNIIMFVGLQGSGK [SRP54] | 2.69 ± 0.067 | 2.78 ± 0.068 | 3.09 ± 0.06 | 2.87 ± 0.038
